Results on one molecule are retold here after patent EP2341079A1 (Institut Pasteur, dated 2011).

Experiment [1] deals with T1, hIgG1 (Sigma-Aldrich reference number I5029) (human, UniProt P01857-1 1-330 = IgG part).
T1 construct: Purified subclass, bought; also called Human IgG1; human IgG1 subclass
Briefly: SPR, hIgG1 immobilised at low density, C3 injected 16-1000 nM, global fit (Fig. 6). On the technique in general: SPR reads the build-up and loss of mass on a sensor chip optically.

The next experiment has as its target streptavidin (UniProt P22629 37-163, limits assumed). Put plainly: ELISA (data not shown).
For a further experiment, the target named is neutravidin (UniProt P02701 25-152). Briefly: ELISA (data not shown). (In general: ELISA stands for enzyme-linked immunosorbent assay.)
Chain of neutravidin (P02701 25-152): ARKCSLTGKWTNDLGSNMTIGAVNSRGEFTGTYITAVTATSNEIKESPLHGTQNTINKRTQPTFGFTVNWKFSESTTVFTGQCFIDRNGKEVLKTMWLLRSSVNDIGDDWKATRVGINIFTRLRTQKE
Experiment [2] has as its target T2, hIgG (IgG pool from human serum containing hIgG1, hIgG2, hIgG3, hIgG4; Fluka reference number 56834).
T2 construct: Polyclonal mixture from human serum; also called human IgG; Immunoglobulin G from human serum
Put plainly: SPR (BIAcore 3000), hIgG on CM5 chip, binder injected, 1:1 global fit.

T1 sequence (P01857 other isoform, or with tags, fused parts or gaps): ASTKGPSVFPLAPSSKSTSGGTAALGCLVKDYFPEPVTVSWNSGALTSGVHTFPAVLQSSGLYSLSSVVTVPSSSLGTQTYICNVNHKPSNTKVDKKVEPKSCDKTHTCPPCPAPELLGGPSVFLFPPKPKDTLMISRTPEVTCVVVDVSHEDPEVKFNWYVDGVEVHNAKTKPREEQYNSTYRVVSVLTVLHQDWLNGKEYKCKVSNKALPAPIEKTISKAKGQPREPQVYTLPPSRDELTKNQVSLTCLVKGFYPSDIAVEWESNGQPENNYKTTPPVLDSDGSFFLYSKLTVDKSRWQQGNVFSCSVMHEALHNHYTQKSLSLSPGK
Chain of streptavidin (P22629 37-163 limits assumed): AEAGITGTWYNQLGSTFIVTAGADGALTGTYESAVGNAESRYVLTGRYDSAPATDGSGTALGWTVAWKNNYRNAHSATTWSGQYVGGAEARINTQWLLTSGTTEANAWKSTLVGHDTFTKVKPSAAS

B1: C3 binder (designed binder)
chain: SVKVKFLLNGEEKEVDTSKIRDVCRQGKNVKFLYNDNGKYGAGNVDEKDAPKELLDMLARAEREKK
notes: Sac7d variant made with a His-tag in E. coli; monomeric by gel filtration; Used free, biotinylated on a streptavidin chip, labelled with AlexaFluor 680, or NHS-coupled to agarose, as said under assay; also called clone C3; not shown: RGS-(His)6 tag from vector pFP1001 (pQE30 derivative)
Regarding B1, in experiment [1], the Kd (as a rule, the equilibrium constant for the complex coming apart) was found to be 94 nM; the koff – broadly, a measure of how fast the partners let go of each other – was found to be 0.051 s⁻¹; the kon (usually a measure of how fast the partners come together) was 540000 M⁻¹ s⁻¹. In addition, in the experiment with streptavidin, the binding result is listed as “no binding”. The binding result with neutravidin is listed as “no binding”. In experiment [2], the Kd turned out to be 74 nM, the koff is 0.066 s⁻¹ and the kon worked out at 890000 M⁻¹ s⁻¹.
